Measurements from patent publication US20250215050A1.

How the values were obtained:
non-Ig plasma proteins [1] = test: flow-through loading of diluted cryo-rich plasma, two-column process
non-Ig plasma proteins [2] = test: flow-through loading of cryo-poor plasma diluted 10-fold, above 10 CVs
NIST mAb [3] = test: adsorption kinetics on resin (FIG. 8A), pure NIST mAb in PBS pH 7.4
[4] = biological target: CHO host cell proteins (HCPs); test: static binding on resin, competitive, CHO HCPs with 1 mg/mL NIST mAb
[5] = biological target: CHO host cell proteins (HCPs); test: static binding on resin, competitive, CHO HCPs with 5 mg/mL NIST mAb
[6] = biological target: CHO host cell proteins (HCPs); test: static binding on resin, competitive against non-competitive conditions
[7] = biological target: CHO host cell proteins (HCPs); test: static binding on resin, Langmuir isotherm fit; non-competitive, null CHO-S harvest
NIST mAb [8] = test: static binding on resin, Langmuir isotherm fit; non-competitive, pure NISTmAb solution
[9] = biological target: CHO host cell proteins (HCPs); test: static binding on resin, Langmuir fit; competitive, CHO HCPs with 1 mg/mL NISTmAb; HCP ELISA
[10] = biological target: CHO host cell proteins (HCPs); test: static binding on resin, Langmuir fit; competitive, CHO HCPs with 5 mg/mL NISTmAb; HCP ELISA
[11] = biological target: CHO host cell proteins (HCPs); test: adsorption kinetics on resin (FIG. 8A), null CHO-S harvest; average HCP MW of 40 kDa assumed
[12] = biological target: CHO host cell proteins (HCPs); test: breakthrough curve, industrial CHO harvest (mAb 1.38 mg/mL, HCP 0.46 mg/mL), residence time 1 min
[13] = biological target: CHO host cell proteins (HCPs); test: breakthrough curve, industrial CHO harvest (mAb 1.38 mg/mL, HCP 0.46 mg/mL), residence time 2 min
[14] = biological target: CHO host cell proteins (HCPs); test: breakthrough curve, industrial CHO harvest (mAb 1.38 mg/mL, HCP 0.46 mg/mL), residence time 5 min
[15] = biological target: CHO host cell proteins (HCPs); test: breakthrough curve, industrial CHO harvest (mAb 1.38 mg/mL, HCP 0.46 mg/mL), residence time 0.5 min
[16] = biological target: CHO host cell proteins (HCPs); test: static binding on resin, Langmuir isotherm fit; non-competitive, null CHO-S harvest; average HCP MW of 40 kDa assumed
[17] = biological target: CHO host cell proteins (HCPs); test: static binding on resin, Langmuir isotherm fit; non-competitive; average HCP MW of 40 kDa assumed (Table 1 prints 6.50)
[18] = biological target: CHO host cell proteins (HCPs); test: static binding of CHO HCPs; summary
[19] = biological target: CHO host cell proteins (HCPs); test: dynamic binding of CHO HCPs, residence time 1 min; summary
[20] = biological target: CHO host cell proteins (HCPs); test: dynamic binding of CHO HCPs, residence time 2 min; summary
[21] = biological target: CHO host cell proteins (HCPs); test: dynamic binding, CHO cell culture fluid; summary for G.1 and G.2 together
[22] = biological target: CHO host cell proteins (HCPs); test: static binding, null CHO-S cell culture fluid; summary for G.1 and G.2 together

Row | Qmax,HCPs [4] | Qmax,HCPs [5] [mg per mL] | Qmax (static binding capacity) [7] [mg/mL] | Kd (NIST mAb [8]) [µM] | Qmax (static binding capacity) (NIST mAb [8]) [mg/mL] | Kd [9] [µM] | Qmax (static binding capacity) [9] [mg/mL] | Kd [10] [µM] | Qmax (static binding capacity) [10] [mg/mL] | Kd [16] [µM] | also measured | Substance
1 |  |  |  |  |  |  |  |  |  |  | binding capacity (mg per mL of resin) (non-Ig plasma proteins [1]): 32; QPP at saturation (non-Ig plasma proteins [2]): 30 mg/mL | second-generation LigaGuard™ adsorbent (plasma work, Examples 5 and 6)
2 | 18 mg per mL | 16 | 24.5 | 28.3 | 10.5 | 4.25 | 23.1 | 4.75 | 22.4 | 3.25 | kon (NIST mAb [3]): 8710 M⁻¹ s⁻¹; decrease of Qmax,HCPs on adding 1 mg/mL mAb [6]: 25%; kon [11]: 39000 M⁻¹ s⁻¹; DBC10% (dynamic binding capacity at 10% breakthrough) [12]: 16.7 mg/mL; DBC10% (dynamic binding capacity at 10% breakthrough) [13]: 16.2 mg/mL; DBC10% (dynamic binding capacity at 10% breakthrough) [14]: 17.6 mg per mL; DBC10% (dynamic binding capacity at 10% breakthrough) [15]: 14.3 mg/mL | second generation (G.2) LigaGuard™ resin
3 | 13 mg/mL | 10 | 21.8 | 14.2 | 11.5 | 8.75 | 18.8 | 8.75 | 15.6 | 6.5 | Kd [17]: 6.75 µM | first generation (G.1) LigaGuard™ resin
4 |  |  |  |  |  |  |  |  |  |  | equilibrium capacity (mg per mL of resin) [18]: 30; 10% breakthrough capacity [19]: < 16 mg/mL; 10% breakthrough capacity [20]: < 22 mg/mL; DBC10% [21]: 16 to 22 mg/mL; Qmax (maximum binding capacity) (mg per mL of resin) [22]: 28 to 30 | LigaGuard™
